For this assay, the target named is T1, BSA (UniProt P02769 25-607).
T1 construct: also called control BSA antigen; control antigen
In words: phage ELISA.

Data on two molecules can be found in US20090324579A1 (UNIVERSITY OF WINDSOR, published 2009).

T1 sequence (P02769 25-607 limits assumed): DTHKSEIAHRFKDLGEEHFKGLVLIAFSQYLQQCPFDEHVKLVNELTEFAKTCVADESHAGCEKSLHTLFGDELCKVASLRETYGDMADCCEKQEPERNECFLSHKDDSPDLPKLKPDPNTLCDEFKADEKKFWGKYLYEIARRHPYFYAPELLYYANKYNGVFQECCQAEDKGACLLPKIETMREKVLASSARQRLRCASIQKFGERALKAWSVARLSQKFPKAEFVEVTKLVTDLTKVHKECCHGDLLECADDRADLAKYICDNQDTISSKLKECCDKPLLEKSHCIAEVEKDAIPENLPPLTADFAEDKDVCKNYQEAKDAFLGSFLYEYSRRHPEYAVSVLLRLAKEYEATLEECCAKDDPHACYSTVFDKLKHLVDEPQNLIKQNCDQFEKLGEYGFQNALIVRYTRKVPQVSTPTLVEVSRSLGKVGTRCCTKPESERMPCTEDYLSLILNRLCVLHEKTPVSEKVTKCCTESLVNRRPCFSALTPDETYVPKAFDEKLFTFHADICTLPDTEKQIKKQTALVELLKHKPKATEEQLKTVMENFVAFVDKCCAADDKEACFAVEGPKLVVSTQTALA

B1: Casp2 VHH displayed on phage (VHH)
VHH: DVQLQASGGGLVQAGGSLRLSCAASTNIFRDKFMAWYRQAPGKQRELVASITTGGRTDYADSVKGRFTISRDNTKDTMYLQMNSLKPEDTAVYYCAGFLGRTYWGQGTQVTVSS
notes: also called Casp2 sdAb
In the case of B1, the binding result was “no binding”.

B2: Casp1 VHH displayed on phage (VHH)
VHH: DVQLQASGGGLVQPGGSLRLSCAASGSLSRITVMGWYRQAPGKQRELVAIITSSGGTNYADSVKGRFTISRDNAKNTVYLQMNSLKPEDTAVYYCLAARGYDRYWGRGTQVTVSS
notes: also called Casp1 sdAb
Regarding B2, the binding result is listed as “no binding”.
